From publication PMC3652857, “A Cryptic Targeting Signal Creates a Mitochondrial FEN1 Isoform with Tailed R-Loop Binding Properties”

Tests used:
[1] = biological target: FEN1 D181A (human, UniProt P39748 1-380, D181A); assay: EMSA; 25 mM Tris pH 8.0, 1 mM DTT, 0.1 mg/ml BSA, 6% glycerol; 0.2 nM 32P substrate; 1 h on ice; 10% native PAGE in tris-borate; conditions: protein: recombinant; tags: His; label: 5'-32P on 19DNA; equilibrating double flap: 19 nt 5' DNA flap, 1 nt 3' flap
[2] = biological target: FEN1 (FEN1-1.His) (human, UniProt P39748 1-380); assay: as above; conditions: protein: recombinant; tags: His; label: 5'-32P on 19DNA; equilibrating double flap: 19 nt 5' DNA flap, 1 nt 3' flap
[3] = biological target: T1, FENMIT (human, UniProt P39748-2 1-316); assay: as above; conditions: protein: recombinant, tags: His
[4] = biological target: T1, FENMIT; assay: EMSA; 1-50 nM FENMIT; 25 mM Tris pH 8.0, 1 mM DTT, 0.1 mg/ml BSA, 6% glycerol; 0.2 nM 32P substrate; 1 h on ice; 10% native PAGE in tris-borate; conditions: protein: recombinant; tags: His; label: 5'-32P; single strand
[5] = biological target: T1, FENMIT; assay: EMSA; 1-50 nM FENMIT; equal to short 3' flap; 25 mM Tris pH 8.0, 1 mM DTT, 0.1 mg/ml BSA, 6% glycerol; 0.2 nM 32P substrate; 1 h on ice; 10% native PAGE in tris-borate; conditions: protein: recombinant; tags: His; label: 5'-32P on RNA44; 5' RNA flap with 20 nt 3' DNA flap
[6] = biological target: T1, FENMIT; assay: competition; 25 nM FENMIT; cold RNA44 0-5 nM; 25 mM Tris pH 8.0, 1 mM DTT, 0.1 mg/ml BSA, 6% glycerol; 0.2 nM 32P substrate; 1 h on ice; 10% native PAGE in tris-borate; conditions: protein: recombinant; tags: His; label: 5'-32P on RNA44; equilibrating full 5' RNA flap, 1 nt 3' DNA flap

T1 sequence (P39748 65-380): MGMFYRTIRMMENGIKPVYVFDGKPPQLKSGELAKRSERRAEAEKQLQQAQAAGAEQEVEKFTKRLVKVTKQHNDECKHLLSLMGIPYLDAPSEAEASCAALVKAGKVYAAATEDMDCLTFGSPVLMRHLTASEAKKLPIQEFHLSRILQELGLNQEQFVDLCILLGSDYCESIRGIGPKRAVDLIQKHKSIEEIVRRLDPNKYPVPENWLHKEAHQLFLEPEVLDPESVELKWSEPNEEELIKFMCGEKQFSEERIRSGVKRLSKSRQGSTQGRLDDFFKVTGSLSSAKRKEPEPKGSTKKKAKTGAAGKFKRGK
Chain of FEN1 D181A (P39748 whole entry D181A): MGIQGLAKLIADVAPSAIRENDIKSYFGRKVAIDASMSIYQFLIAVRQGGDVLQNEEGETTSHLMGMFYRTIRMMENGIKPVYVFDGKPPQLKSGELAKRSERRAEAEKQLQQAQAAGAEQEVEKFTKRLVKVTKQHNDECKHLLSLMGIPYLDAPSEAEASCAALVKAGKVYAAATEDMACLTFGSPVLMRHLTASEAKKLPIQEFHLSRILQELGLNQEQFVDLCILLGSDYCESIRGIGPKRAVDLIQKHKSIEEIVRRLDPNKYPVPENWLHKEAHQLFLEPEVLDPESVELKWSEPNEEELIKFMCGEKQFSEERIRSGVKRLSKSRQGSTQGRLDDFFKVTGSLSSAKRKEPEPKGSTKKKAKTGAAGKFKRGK
Chain of FEN1 (FEN1-1.His) (P39748 whole entry): as the sequence (P39748 whole entry D181A) above, with A181D counted along it

B1: T1:U1:19DNA* equilibrating 5' DNA flap (structured_DNA)
DNA 1: GTCGACCTGCAGCCCAAGCTTGCGTTGCTG
DNA 2: CAGCAACGCAAGCTTGC
DNA 3: ATGTGGAAAATCTCTAGCAGGCTGCAGGTCGAC
binding result [1]: binds
binding result [2]: binds
binding result ([3]; label: 5'-32P on 19DNA, equilibrating double flap: 19 nt 5' DNA flap, 1 nt 3' flap): no binding

UCAACGUGGGCAAAGAAUGUCCUACGUCCGAUACGGAUAAUCGC (ssRNA) [RNA44 ssRNA]
binding signal [4]: 3 fold lower affinity than RNA flap substrates

B2: T6:D1:RNA44* R-loop (mixed)
DNA 1: CTGCGTCGGCTTAAGATGGTGCGATTATCCGTATCGGACGTAGGACATTCTTTGCCCACGTTGATGGGTAGATAGCCTAACCGG
DNA 2: CCGGTTAGGCTATCTACCCATAAGTTTATTCCCTGCTCTTAGCAGATGGAGTCTGTGAACTGCAATCAATACCATCTTAAGCCGACGCAG
RNA: UCAACGUGGGCAAAGAAUGUCCUACGUCCGAUACGGAUAAUCGC
binding result ([3]; label: 5'-32P on RNA44, R-loop without RNA flap): binds

B3: U3:T2:RNA44* 5' RNA flap with 20 nt 3' flap (mixed)
DNA 1: GCGATTATCCGTATCGGACGTAGGAAGCCTGCCATTTGATGGTC
DNA 2: GACCATCAAATGGCAGGCTGAACGAACAAAGCGAAAGCG
RNA: UCAACGUGGGCAAAGAAUGUCCUACGUCCGAUACGGAUAAUCGC
binding result [5]: binds

B4: T2:U2:RNA44* 5' RNA flap (mixed)
DNA 1: GCGATTATCCGTATCGGACGTAGGAAGCCTGCCATTTGATGGTC
DNA 2: GACCATCAAATGGCAGGCTG
RNA: UCAACGUGGGCAAAGAAUGUCCUACGUCCGAUACGGAUAAUCGC
binding signal [6]: 3 fold more cold RNA44 for half competition than labeled ssRNA needs
